The numbers were not newly measured in PMC8915186, which cites them from elsewhere.

pKd: −log10 of the molar value.

This data set deals with IL-1R1 (Homo sapiens) (UniProt P14778).
Chain of UniProt P14778 (P14778 18-569): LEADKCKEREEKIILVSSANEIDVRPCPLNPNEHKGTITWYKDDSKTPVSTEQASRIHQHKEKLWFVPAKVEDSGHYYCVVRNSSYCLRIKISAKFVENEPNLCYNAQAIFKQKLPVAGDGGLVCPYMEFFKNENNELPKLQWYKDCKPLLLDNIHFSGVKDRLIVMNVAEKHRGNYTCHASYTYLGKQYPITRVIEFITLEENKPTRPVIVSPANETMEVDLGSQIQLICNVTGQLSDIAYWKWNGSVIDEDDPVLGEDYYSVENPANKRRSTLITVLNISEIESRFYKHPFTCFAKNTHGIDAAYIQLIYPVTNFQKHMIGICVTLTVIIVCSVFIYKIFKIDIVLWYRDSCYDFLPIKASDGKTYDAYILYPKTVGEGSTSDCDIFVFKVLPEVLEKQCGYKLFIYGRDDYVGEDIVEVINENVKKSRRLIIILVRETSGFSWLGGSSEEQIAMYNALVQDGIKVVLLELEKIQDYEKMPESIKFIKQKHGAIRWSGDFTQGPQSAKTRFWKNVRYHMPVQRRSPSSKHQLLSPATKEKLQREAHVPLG

On to IL-1β (from UniProt P01584), for which the pKd was 8.70.
